Changes are numbered by the printed parent chain. Names may count otherwise.

This series deals with the molecule itself. The experiment in a line: GraFix.

B1: ad2-100K truncation mutant Δ680–805 with a C terminal 2 × Strep tag (domain or fragment, human adenovirus type 2 (ad2), UniProt P24932 1-679, looked up)
chain: MESVEKEDSLTAPFEFATTASTDAANAPTTFPVEAPPLEEEEVIIEQDPGFVSEDDEDRSVPTEDKKQDQDDAEANEEQVGRGDQRHGDYLDVGDDVLLKHLQRQCAIICDALQERSDVPLAIADVSLAYERHLFSPRVPPKRQENGTCEPNPRLNFYPVFAVPEVLATYHIFFQNCKIPLSCRANRSRADKQLALRQGAVIPDIASLDEVPKIFEGLGRDEKRAANALQQENSENESHCGVLVELEGDNARLAVLKRSIEVTHFAYPALNLPPKVMSTVMSELIVRRARPLERDANLQEQTEEGLPAVGDEQLARWLETREPADLEERRKLMMAAVLVTVELECMQRFFADPEMQRKLEETLHYTFRQGYVRQACKISNVELCNLVSYLGILHENRLGQNVLHSTLKGEARRDYVRDCVYLFLCYTWQTAMGVWQQCLEERNLKELQKLLKQNLKDLWTAFNERSVAAHLADIIFPERLLKTLQQGLPDFTSQSMLQNFRNFILERSGILPATCCALPSDFVPIKYRECPPPLWGHCYLLQLANYLAYHSDIMEDVSGDGLLECHCRCNLCTPHRSLVCNSQLLSESQIIGTFELQGPSPDEKSAAPGLKLTPGLWTSAYLRKFVPEDYHAHEIRFYEDQSRPPNAELTACVITQGHILGQLQAINKARQEFLLRKGR
In the case of B1, the binding result was “binds”.

B2: ad2-100K fused with a C terminal 2 × Strep tag (natural protein, human adenovirus type 2 (ad2), UniProt P24932 1-805, looked up)
chain: MESVEKEDSLTAPFEFATTASTDAANAPTTFPVEAPPLEEEEVIIEQDPGFVSEDDEDRSVPTEDKKQDQDDAEANEEQVGRGDQRHGDYLDVGDDVLLKHLQRQCAIICDALQERSDVPLAIADVSLAYERHLFSPRVPPKRQENGTCEPNPRLNFYPVFAVPEVLATYHIFFQNCKIPLSCRANRSRADKQLALRQGAVIPDIASLDEVPKIFEGLGRDEKRAANALQQENSENESHCGVLVELEGDNARLAVLKRSIEVTHFAYPALNLPPKVMSTVMSELIVRRARPLERDANLQEQTEEGLPAVGDEQLARWLETREPADLEERRKLMMAAVLVTVELECMQRFFADPEMQRKLEETLHYTFRQGYVRQACKISNVELCNLVSYLGILHENRLGQNVLHSTLKGEARRDYVRDCVYLFLCYTWQTAMGVWQQCLEERNLKELQKLLKQNLKDLWTAFNERSVAAHLADIIFPERLLKTLQQGLPDFTSQSMLQNFRNFILERSGILPATCCALPSDFVPIKYRECPPPLWGHCYLLQLANYLAYHSDIMEDVSGDGLLECHCRCNLCTPHRSLVCNSQLLSESQIIGTFELQGPSPDEKSAAPGLKLTPGLWTSAYLRKFVPEDYHAHEIRFYEDQSRPPNAELTACVITQGHILGQLQAINKARQEFLLRKGRGVYLDPQSGEELNPIPPPPQPYQQPRALASQDGTQKEAAAAAAATHGRGGILGQSGRGGFGRGGGDDGRLGQPRRSFRGRRGVRRNTVTLGRIPLAGAPEIGNRSQHRYNLRSSGAAGTACSPTQP
modifications: intermolecular disulfide bonds C515-C516' and C516-C515' between the two protomers
As usually defined, the stoichiometry N is a count of units in the complex or per binding partner. Regarding B2, the “stoichiometry N” value is 2.

B3: ad2-100K mutant C515S-C516S-strepII (natural protein, human adenovirus type 2 (ad2), UniProt P24932 1-805, looked up)
chain: B2 chain with C515S, C516S
Regarding B3, the binding result is “binds”.

B4: ad2-100K truncation mutant Δ693–805 with a C terminal 2 × Strep tag (domain or fragment, human adenovirus type 2 (ad2), UniProt P24932 1-692, looked up)
chain: MESVEKEDSLTAPFEFATTASTDAANAPTTFPVEAPPLEEEEVIIEQDPGFVSEDDEDRSVPTEDKKQDQDDAEANEEQVGRGDQRHGDYLDVGDDVLLKHLQRQCAIICDALQERSDVPLAIADVSLAYERHLFSPRVPPKRQENGTCEPNPRLNFYPVFAVPEVLATYHIFFQNCKIPLSCRANRSRADKQLALRQGAVIPDIASLDEVPKIFEGLGRDEKRAANALQQENSENESHCGVLVELEGDNARLAVLKRSIEVTHFAYPALNLPPKVMSTVMSELIVRRARPLERDANLQEQTEEGLPAVGDEQLARWLETREPADLEERRKLMMAAVLVTVELECMQRFFADPEMQRKLEETLHYTFRQGYVRQACKISNVELCNLVSYLGILHENRLGQNVLHSTLKGEARRDYVRDCVYLFLCYTWQTAMGVWQQCLEERNLKELQKLLKQNLKDLWTAFNERSVAAHLADIIFPERLLKTLQQGLPDFTSQSMLQNFRNFILERSGILPATCCALPSDFVPIKYRECPPPLWGHCYLLQLANYLAYHSDIMEDVSGDGLLECHCRCNLCTPHRSLVCNSQLLSESQIIGTFELQGPSPDEKSAAPGLKLTPGLWTSAYLRKFVPEDYHAHEIRFYEDQSRPPNAELTACVITQGHILGQLQAINKARQEFLLRKGRGVYLDPQSGEELN
Regarding B4, the binding result is on record as “binds”.

The values above are taken from paper PMC12041577 (Nature Communications, 2025).
